Biological target: interferon α (IFNα) (UniProt P01563)
Experiment: SPR

Kd: 4.58 nM
B1: human IFNAR1 (receptor)
chain: KNLKSPQKVEVDIIDDNFILRWNRSDESVGNVTFSFDYQKTGMDNWIKLSGCQNITSTKCNFSSLKLNVYEEIKLRIRAEKENTSSWYEVDSFTPFRKAQIGPPEVHLEAEDKAIVIHISPGTKDSVMWALDGLSFTYSLVIWKNSSGVEERIENIYSRHKIYKLSPETTYCLKVKAALLTSWKIGVYSPVHCIKTTVENELPPPENIEVSVQNQNYVLKWDYTYANMTFQVQWLHAFLKRNPGNHLYKWKQIPDCENVKTTQCVFPQNVFQKGIYLLRVQASDGNNTSFWSEEIKFDTEIQAFLLPPVFNIRSLSDSFHIYIGAPKQSGNTPVIQDYPLIYEIIFWENTSNAERKIIEKKTDVTVPNLKPLTVYCVKARAHTMDEKLNKSSVFSDAVCEKTKPGNTSKIWLIVGICIALFALPFVIYAAKVFLRCINYVFFPSLKPSSSIDEYFSEQPLKNLLLSTSEEQIEKCFIIENISTIATVEETNQTDEDHKKYSSQTSQDSGNYSNEDESESKTSEELQQDFV

Source: paper PMC7893194
